The test deals with CaOYE, ene-reductase (Old Yellow Enzyme homologue) from Chloroflexus aggregans (Chloroflexus aggregans DSM 9485) (UniProt B8G5D6). In words: crystal structure; N-terminally His6-tagged CaOYE at 20 mg/mL in 50 mM Tris-HCl pH 8.0; crystals from 100 mM HEPES pH 7.0, 1.1 M sodium malonate, 0.5% Jeffamine ED-2003, 293 K; space group C2221, 4 molecules per asymmetric unit; dimer seen in the crystal packing.

CaOYE, ene-reductase (Old Yellow Enzyme homologue) from Chloroflexus aggregans, sequence (B8G5D6 whole entry): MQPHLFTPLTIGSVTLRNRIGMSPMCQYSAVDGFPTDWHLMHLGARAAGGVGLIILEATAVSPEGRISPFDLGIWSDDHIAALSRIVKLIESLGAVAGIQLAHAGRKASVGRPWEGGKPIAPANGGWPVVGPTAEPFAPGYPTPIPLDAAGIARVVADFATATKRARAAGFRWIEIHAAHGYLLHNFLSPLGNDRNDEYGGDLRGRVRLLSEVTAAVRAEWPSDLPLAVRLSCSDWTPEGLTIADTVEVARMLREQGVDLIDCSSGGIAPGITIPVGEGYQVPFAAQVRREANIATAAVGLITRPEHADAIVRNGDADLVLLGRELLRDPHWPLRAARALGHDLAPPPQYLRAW

“CaOYE, ene-reductase (Old Yellow Enzyme homologue) from Chloroflexus aggregans (from UniProt B8G5D6 1-354)”: the stoichiometry N – broadly, the number of molecules, sites or subunits per partner or assembly – came to 2.

The values are drawn from publication PMC8146883, “A New Thermophilic Ene-Reductase from the Filamentous Anoxygenic Phototrophic Bacterium Chloroflexus aggregans” (Microorganisms, 2021).
